Data published in patent US20120070434A1.
Like-named read-outs stand apart in the source and are kept apart here.

B1: HC+LC-TPO antibody (antibody)
heavy: QVQLVQSGAEVKKPGASVKVSCKASGYTFTYYAMHWVRQAPGQRPEWMGWINGGDGKTKYAQKFQGRLAITRDTSARTAYMELISLTSEDTAVYYCAKGAEMTVGSWGPGTLVTVSSASTKGPSVFPLAPCSRSTSESTAALGCLVKDYFPEPVTVSWNSGALTSGVHTFPAVLQSSGLYSLSSVVTVPSSNFGTQTYTCNVDHKPSNTKVDKTVERKCCVECPPCPAPPVANPIEGPTLRQWLAARARGGPSVFLFPPKPKDTLMISRTPEVTCVVVDVSQEDPEVQFNWYVDGVEVHNAKTKPREEQFNSTYRVVSVLTVLHQDWLNGKEYKCKVSNKGLPSSIEKTISKAKGQPREPQVYTLPPSQEEMTKNQVSLTCLVKGFYPSDIAVEWESNGQPENNYKTTPPVLDSDGSFFLYSRLTVDKSRWQEGNVFSCSVMHEALHNHYTQKSLSLSLGK
light: DIQMTQSPSSLSASVGDRVTLTCRASQGVRNALVWYQQKPGKAPERLIYAASILQSGVPSRFSGSGSGTEFTLTIGGLQPEDFATYYCLQHNSYPWTFGQGTKVEIKRTVAAPSVFIFPPSDEQLKSGTASVVCLLNNFYPREAKVQWKVDNALQSGNSQESVTEQDSKDSTYSLSSTLTLSKADYEKHKVYACEVTHQGLSSPVTKSFNRGECARSLIEGPTLRQWLAARAPI

What was measured:
[1] = biological target: Recombinant TPO receptor (R&D Systems); test: BLI (Octet), biotinylated TPO receptor on streptavidin probe, second experiment
[2] = biological target: Recombinant TPO receptor (R&D Systems)

| Molecule | Kd [1] | Kd [2] |
| --- | --- | --- |
| recombinant human thrombopoietin (from UniProt P40225 22-353) (ligand) | 3 nM |  |
| B1 | 3 nM | 2.32 nM |
